Columns and labels:
[1] = target: GFP-tagged SHROOM2 ASD2 domain (mouse protein 1,178–1,488 aa) (mouse); experiment: SPR
[2] = target: preformed SHROOM2:ROCK1 complex (mouse | human) (UniProt Q13464); experiment: SPR

Substance	Kd [1] [nM]	fold higher affinity than for the single domain (printed: ROCK1 alone) [2] [fold]
GST-tagged ROCK1 SBD domain (834–913 aa) (from UniProt Q13464 834-913) (domain or fragment)	1000	–
GST-tagged SCRIB C-terminal fragment (1,478–1,630) (from UniProt Q14160 1478-1630) (domain or fragment)	960	5

Source: PMC10626209
